# According to publication PMC4116301:
# Tests used:
# [1] = molecular target: Xenopus laevis Bonsai CENP-E (Xenopus laevis); test: single-molecule fluorescence brightness and photobleaching steps
# [2] = molecular target: microtubules (tubulin purified from cow brains) (cow) (UniProt Q6B856); test: co-sedimentation
Substance,stoichiometry N [1],Kd [2]
Xenopus laevis Bonsai CENP-E,2,–
Xenopus laevis full-length CENP-E (natural protein),–,24 nM
